Assay results from patent US20190389958A1 (MSM PROTEIN TECHNOLOGIES, published 2019).

Assays:
[1] = biological target: T1, human CXCR4 (human, UniProt P61073 1-352); test: cell-based or functional assay
[2] = biological target: T1, human CXCR4; test: cell-based or functional assay; remark: listed apart in the source
[3] = biological target: T1, human CXCR4; test: flow cytometry on Cf2-Th cells transfected with human CXCR4, IgG1 format
Protocol: A typical protocol for the fluorescent flow cytometry-based assay was as follows. Ten microliter of a purified test IgG solution or buffer as a control were added to 10 microliter of a suspension containing approximately 30,000 Cf2-Th cells transfected to express human CXCR4. After incubation on ice for 40 min, cells were washed with FACS buffer (phosphate-buffered saline (PBS), pH7.4; 2% fetal calf serum, 0.1% sodium azide) to remove unbound antibodies. Ten microliter of a solution of phycoerythrin (PE)-conjugated mouse anti-human Fc monoclonal antibody (1/20 dilution; catalog number 12-4998-82, eBioscience Inc., San Diego, Calif.) were then added to the cells, and, after a 30-min incubation on ice, cells were washed twice and then formalin-fixed (FIX buffer: PBS, pH7.4; 0.5% formaldehyde). Fixed samples were analysed by fluorescent flow cytometry using a Guava-PCA96 instrument (EMD Millipore Chemicals, Merck KGaA, Darmstadt, Germany).

[4] = biological target: T1, human CXCR4; test: flow cytometry, IgG 10 µg/mL, CXCR4-expressing Ramos (RA1) cells
Protocol: Binding of test IgGs to CXCR4-expressing human lymphoma cells (Ramos; RA1, ATCC® CRL-1596™) was measured by fluorescent flow cytometry-based assay. Tumor cell staining was conducted as follows: human Fcγ receptors of RA1 cells were saturated by incubation at 4° C. for 30 minutes in PBS containing 2% human serum and 0.5 mM EDTA. Cells were then incubated at 4° C. for one hour with test IgGs or a human isotypic IgG1 kappa control (Coger Sarl, Paris, France) (both antibody types at 10 μg/mL). The cells were washed with PBS and further incubated for one hour at 4° C. with a goat F(ab′)2 fragment anti-human IgG (H+L)-PE (Beckman Coulter). The cells were washed twice with PBS and fixed with 0.5% formaldehyde in PBS for analysis by flow cytometry. The data were acquired using an eleven-color flow cytometer (LSRII, BD Biosciences), and the analyses were performed with the FlowJo flow cytometry analysis software (Tree Star Inc., Ashland, Oreg.). The living cells were selected using the side scatter (SSC) and the forward scatter (FSC); 10,000 events were acquired for each analysis. MFI values were recorded using the PE channel.

T1 sequence (P61073 whole entry): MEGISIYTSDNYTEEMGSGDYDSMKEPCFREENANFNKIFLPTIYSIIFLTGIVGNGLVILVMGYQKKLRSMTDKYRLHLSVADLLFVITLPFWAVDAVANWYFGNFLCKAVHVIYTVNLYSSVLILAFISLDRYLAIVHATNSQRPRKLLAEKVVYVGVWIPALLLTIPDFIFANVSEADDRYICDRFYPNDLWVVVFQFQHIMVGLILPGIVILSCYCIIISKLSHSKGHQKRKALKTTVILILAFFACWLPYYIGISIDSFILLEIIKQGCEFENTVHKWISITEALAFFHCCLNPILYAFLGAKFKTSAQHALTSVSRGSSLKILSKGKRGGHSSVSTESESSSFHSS

B1: V62.1-R108H-m43-m38 (antibody, human IgG1, V domains shown)
VH: EVQLLESGGGLVQPGGSLRLSCAASGFTFSSYAMSWVRQAPGKGLEWVSAISGSGGGSTRYADSVKGRFTISRDNSKNTLYLQMNSLRAEDTAVYYCARQGKTRVYGYHWHGYGSTHALDYWGQGTLVTVSS
VL: EIVLTQSPGTLSLSPGERATLSCRASQSVSSSYLAWYQQKPGQAPRLLIYGASSRATGIPDRFSGSGSGTDFTLTISRLEPEDFAVYYCQQWSSDSVTFGQGTKVEIKR
notes: Tested as an IgG (human IgG1 format); also called V62.1-H-m43-m38; IgG1 62.1-R108H-m43-m38
% Inhibition of SDF-1alpha-induced chemotaxis of U937 cells (IgG at 100 nM) [1]: 77% | IC50 (nM), inhibition of SDF-1alpha-induced calcium flux [2]: 3.8 nM | EC50 [3]: < 10 nM | MFI [4]: 488
